Reference: publication PMC8721105

Assays:
[1] = biological target: TbPEX19FL-His (T. brucei); assay: ELISA
[2] = biological target: TbPEX19FL-His (T. brucei); assay: AlphaScreen or HTRF
[3] = biological target: GST-TbPEX3d44 (T. brucei); assay: AlphaScreen or HTRF

| Kd [1] [nM] | Kd [2] [nM] | Kd [3] [nM] | Substance |
| --- | --- | --- | --- |
| 0.16 | 32.8 |  | GST-TbPEX3d44 (domain or fragment) |
|  |  | 3.7 | TbPEX19-Strep (natural protein) |
|  |  | 9.7 | tag-free TbPEX19 (natural protein) |
